In patent publication US20200031885A1:

What was measured:
Experiment in all cases: affinity capture from mixture of 54 pTyr peptides, PRM-MS
[1] = target: TYK2 (pTyr1054/1055) peptide AVPEGHEpYpYR
[2] = target: INSRR (pTyr1145/1146) peptide DVYETDpYpYR
[3] = target: TXK (pTyr420) peptide YVLDDEpYVSSFGAK
[4] = target: JAK3 (pTyr980/981) peptide DpYpYVVR
[5] = target: EPHB2 (pTyr780) peptide …pYTSALGGK
[6] = target: EPHA2 (pTyr772) peptide …pYTTSGGK
[7] = target: NTRK1 (pTyr680/681) peptide DIYSTDpYpYR
[8] = target: RON (pTyr1238/1239) peptide EpYpYSVQQHR
[9] = target: FGFR1 (pTyr653/654) peptide DIHHIDpYpYK
[10] = target: LMTK2 (pTyr295) peptide EDpYIETDDK
[11] = target: FGFR2 (pTyr656/657) peptide DINNIDpYpYK
[12] = target: EPHA1 (pTyr781) peptide LLDDFDGTpYETQGGK
[13] = target: ERBB3 (pTyr866) peptide QLLpYSEAK
[14] = target: TEC (pTyr519) peptide YVLDDQpYTSSSGAK
[15] = target: MET (pTyr1234/1235) peptide EpYpYSVHNK
[16] = target: EPHA8 (pTyr793) peptide …pYTTTGGK
[17] = target: ROR1 (pTyr645/646) peptide EIYSADpYpYR
[18] = target: ERBB2 (pTyr877) peptide LLDIDETEpYHADGGK
[19] = target: JAK2 (pTyr221) peptide IQDpYHILTR
[20] = target: NTRK2 (pTyr706/707) peptide DVYSTDpYpYR
[21] = target: EPHA6 (pTyr830) peptide …pYTTTGGK
[22] = target: LMTK3 (pTyr296/297) peptide EDpYpYLTPER
[23] = target: JAK1 (pTyr1034/1035) peptide EpYpYTVK
[24] = target: ROR2 (pTyr645/646) peptide EVYAADpYpYK
[25] = target: FGFR3 (pTyr647/648) peptide DVHNLDpYpYK
[26] = target: BTK (pTyr551) peptide YVLDDEpYTSSVGSK
[27] = target: DDR2 (pTyr740/741) peptide NLYSGDpYpYR
[28] = target: PTK7 (pTyr960/961) peptide DVYNSEpYpYHFR
[29] = target: DDR1 (pTyr796/797) peptide NLYAGDpYpYR
[30] = target: FGFR4 (pTyr642/643) peptide GVHHIDpYpYK
[31] = target: EPHB3 (pTyr792) peptide …pYTSSLGGK
[32] = target: SRC (pTyr419) peptide LIEDNEpYTAR
[33] = target: SRMS (pTyr380) peptide DDIpYSPSSSSK
[34] = target: TIE1 (pTyr1007) peptide GEEVpYVK
[35] = target: KIT (pTyr823) peptide NDSNpYVVK
[36] = target: ITK (pTyr512) peptide FVLDDQpYTSSTGTK
[37] = target: MERTK (pTyr753/754) peptide IYSGDpYpYR
[38] = target: VGFR2 (pTyr1059) peptide DPDpYVR
[39] = target: GSK3 (pTyr279/216) peptide GEPNVSpYICSR
[40] = target: BMX (pTyr566) peptide YVLDDQpYVSSVGTK
[41] = target: FES (pTyr713) peptide EEADGVpYAASGGLR
[42] = target: BLK (pTyr389) peptide IIDSEpYTAQEGAK
[43] = target: HCK (pTyr411) peptide VIEDNEpYTAR
[44] = target: MUSK (pTyr755/756) peptide NIYSADpYpYK
[45] = target: EPHA3 (pTyr779) peptide …pYTTR
[46] = target: TIE2 (pTyr992) peptide GQEVpYVK
[47] = target: EPHB4 (pTyr774) peptide …pYTSSLGGK
[48] = target: FER (pTyr714) peptide QEDGGVpYSSSGLK
[49] = target: FRK (pTyr387) peptide VDNEDIpYESR
[50] = target: PGFRB (pTyr857) peptide DSNpYISK
[51] = target: EPHB1 (pTyr778) peptide …pYTSSLGGK
[52] = target: RET (pTyr905) peptide DVYEEDSpYVK
[53] = target: VGFR1 (pTyr1053) peptide NPDpYVR

**Q.** “DM human Src SH2 Superbinder expressed with His6 and GST tags (designed binder)” was tested. Which PRM signal peak area [1] did it give?
**A.** 9680

**Q.** What about the PRM signal peak area [2] of the same substance?
**A.** 7790

**Q.** And the PRM signal peak area [3]?
**A.** 46100

**Q.** What about the PRM signal peak area [4] of the same substance?
**A.** 10500

**Q.** What about the PRM signal peak area [5] of the same substance?
**A.** 98000

**Q.** And the PRM signal peak area [6]?
**A.** 4860

**Q.** What about the PRM signal peak area [7] of the same substance?
**A.** 30200

**Q.** What about the PRM signal peak area [8] of the same substance?
**A.** 17400

**Q.** What about the PRM signal peak area [9] of the same substance?
**A.** 29000

**Q.** What about the PRM signal peak area [10] of the same substance?
**A.** 1120

**Q.** What about the PRM signal peak area [11] of the same substance?
**A.** 39500

**Q.** And the PRM signal peak area [12]?
**A.** 12300

**Q.** And the PRM signal peak area [13]?
**A.** 152000

**Q.** And the PRM signal peak area [14]?
**A.** 4820

**Q.** What about the PRM signal peak area [15] of the same substance?
**A.** 70800

**Q.** What about the PRM signal peak area [16] of the same substance?
**A.** 57100

**Q.** What about the PRM signal peak area [17] of the same substance?
**A.** 27700

**Q.** What about the PRM signal peak area [18] of the same substance?
**A.** 4640

**Q.** And the PRM signal peak area [19]?
**A.** 39200

**Q.** And the PRM signal peak area [20]?
**A.** 22800

**Q.** And the PRM signal peak area [21]?
**A.** 51100

**Q.** And the PRM signal peak area [22]?
**A.** 78600

**Q.** And the PRM signal peak area [23]?
**A.** 46200

**Q.** And the PRM signal peak area [24]?
**A.** 60500

**Q.** And the PRM signal peak area [25]?
**A.** 64600

**Q.** And the PRM signal peak area [26]?
**A.** 18200

**Q.** What about the PRM signal peak area [27] of the same substance?
**A.** 16200

**Q.** What about the PRM signal peak area [28] of the same substance?
**A.** 4840

**Q.** What about the PRM signal peak area [29] of the same substance?
**A.** 43200

**Q.** What about the PRM signal peak area [30] of the same substance?
**A.** 30000

**Q.** What about the PRM signal peak area [31] of the same substance?
**A.** 14700

**Q.** How did the PRM signal peak area [32] turn out when “TrM human Src SH2 Superbinder expressed with His6 and GST tags (designed binder)” was run?
**A.** 99500

**Q.** And the PRM signal peak area [33]?
**A.** 479000

**Q.** And the PRM signal peak area [1]?
**A.** 53500

**Q.** What about the PRM signal peak area [2] of the same substance?
**A.** 20800

**Q.** And the PRM signal peak area [34]?
**A.** 409000

**Q.** What about the PRM signal peak area [3] of the same substance?
**A.** 272000

**Q.** And the PRM signal peak area [4]?
**A.** 19700

**Q.** What about the PRM signal peak area [5] of the same substance?
**A.** 215000

**Q.** And the PRM signal peak area [35]?
**A.** 235000

**Q.** And the PRM signal peak area [6]?
**A.** 347000

**Q.** And the PRM signal peak area [7]?
**A.** 103000

**Q.** And the PRM signal peak area [36]?
**A.** 403000

**Q.** And the PRM signal peak area [8]?
**A.** 44300

**Q.** And the PRM signal peak area [9]?
**A.** 51200

**Q.** And the PRM signal peak area [37]?
**A.** 26500

**Q.** What about the PRM signal peak area [10] of the same substance?
**A.** 20900

**Q.** What about the PRM signal peak area [11] of the same substance?
**A.** 87100

**Q.** And the PRM signal peak area [38]?
**A.** 197000

**Q.** What about the PRM signal peak area [39] of the same substance?
**A.** 48300

**Q.** And the PRM signal peak area [12]?
**A.** 188000

**Q.** And the PRM signal peak area [13]?
**A.** 164000

**Q.** And the PRM signal peak area [40]?
**A.** 151000

**Q.** What about the PRM signal peak area [41] of the same substance?
**A.** 25100

**Q.** And the PRM signal peak area [14]?
**A.** 781000

**Q.** What about the PRM signal peak area [42] of the same substance?
**A.** 156000

**Q.** What about the PRM signal peak area [15] of the same substance?
**A.** 111000

**Q.** What about the PRM signal peak area [16] of the same substance?
**A.** 585000

**Q.** And the PRM signal peak area [43]?
**A.** 384000

**Q.** And the PRM signal peak area [17]?
**A.** 177000

**Q.** And the PRM signal peak area [18]?
**A.** 42700

**Q.** And the PRM signal peak area [44]?
**A.** 178000

**Q.** What about the PRM signal peak area [45] of the same substance?
**A.** 394000

**Q.** What about the PRM signal peak area [46] of the same substance?
**A.** 210000

**Q.** And the PRM signal peak area [19]?
**A.** 85500

**Q.** And the PRM signal peak area [47]?
**A.** 134000

**Q.** And the PRM signal peak area [20]?
**A.** 115000

**Q.** What about the PRM signal peak area [48] of the same substance?
**A.** 27400

**Q.** What about the PRM signal peak area [21] of the same substance?
**A.** 288000

**Q.** And the PRM signal peak area [49]?
**A.** 291000

**Q.** What about the PRM signal peak area [22] of the same substance?
**A.** 376000

**Q.** And the PRM signal peak area [23]?
**A.** 110000

**Q.** What about the PRM signal peak area [24] of the same substance?
**A.** 334000

**Q.** And the PRM signal peak area [25]?
**A.** 258000

**Q.** What about the PRM signal peak area [26] of the same substance?
**A.** 1.31e+06

**Q.** What about the PRM signal peak area [27] of the same substance?
**A.** 185000

**Q.** And the PRM signal peak area [50]?
**A.** 398000

**Q.** What about the PRM signal peak area [51] of the same substance?
**A.** 206000

**Q.** And the PRM signal peak area [28]?
**A.** 8860

**Q.** What about the PRM signal peak area [29] of the same substance?
**A.** 338000

**Q.** And the PRM signal peak area [52]?
**A.** 883000

**Q.** And the PRM signal peak area [53]?
**A.** 158000

**Q.** And the PRM signal peak area [30]?
**A.** 36100

**Q.** What about the PRM signal peak area [31] of the same substance?
**A.** 260000

**Q.** How did the PRM signal peak area [1] turn out when “wild-type (wt) human Src SH2 domain expressed with His6 and GST tags” was run?
**A.** 11600

**Q.** And the PRM signal peak area [3]?
**A.** 1520

**Q.** And the PRM signal peak area [4]?
**A.** 23300

**Q.** What about the PRM signal peak area [5] of the same substance?
**A.** 10800

**Q.** And the PRM signal peak area [7]?
**A.** 21700

**Q.** And the PRM signal peak area [8]?
**A.** 5430

**Q.** And the PRM signal peak area [9]?
**A.** 28500

**Q.** And the PRM signal peak area [11]?
**A.** 51600

**Q.** What about the PRM signal peak area [13] of the same substance?
**A.** 41900

**Q.** And the PRM signal peak area [15]?
**A.** 26800

**Q.** And the PRM signal peak area [17]?
**A.** 32400

**Q.** What about the PRM signal peak area [44] of the same substance?
**A.** 47600

**Q.** And the PRM signal peak area [20]?
**A.** 39600

**Q.** What about the PRM signal peak area [21] of the same substance?
**A.** 2740

**Q.** And the PRM signal peak area [22]?
**A.** 29900

**Q.** What about the PRM signal peak area [23] of the same substance?
**A.** 58300

**Q.** What about the PRM signal peak area [24] of the same substance?
**A.** 85900

**Q.** And the PRM signal peak area [25]?
**A.** 104000

**Q.** What about the PRM signal peak area [26] of the same substance?
**A.** 4210

**Q.** And the PRM signal peak area [27]?
**A.** 15300

**Q.** And the PRM signal peak area [29]?
**A.** 47700

**Q.** What about the PRM signal peak area [30] of the same substance?
**A.** 29800
